The text below walks through data of paper PMC8342540, “The middle lipin domain adopts a membrane-binding dimeric protein fold” (Nature Communications, 2021).

Series [1] deals with the molecule itself. The experiment in a line: SEC-MALS; 1.6 mg injected onto Superdex 200 Increase 10/300, flow 0.35 ml/min. In general terms: SEC sorts molecules by how far they enter the pores of the column.
Series [2] deals with the molecule itself. Briefly: SEC; Superdex 200 10/300 in 20 mM Tris pH 8.0, 150 mM NaCl, 10 mM 2-mercaptoethanol; elution compared with MW standards.
Series [3] deals with the molecule itself. The experiment in a line: crystal structure; mouse lipin 2 M-Lip^xtal, 0.2 M calcium acetate, 20% PEG 3350, hanging drop, RT.

B1: mouse lipin 1 M-Lip^xtal domain (residues 458–548), as used in SEC-MALS (domain or fragment, UniProt Q91ZP3-2 458-548, looked up)
chain: SLRDLPSIAISLCGGLSDHREITKDAFLEQAVSYQQFADNPAIIDDPNLVVKVGNKYYNWTTAAPLLLAMQAFQKPLPKATVESIMRDKMP
notes: mouse lipin 1, M-Lip^xtal domain, residues 458–548; numbers count on: mouse lipin 1 alpha (891 residues); The stated dimer mass of 26 kDa (13 kDa a chain) would fit the 91 residues plus a vector-encoded His tag (surmise); source: E. coli BL21 (DE3) RIPL, purified (Ni-NTA, SEC)
As to B1, the stoichiometry N – broadly, the number of molecules, sites or subunits per partner or assembly – in series [1] turned out to be 2.

B2: full-length mouse lipin 1 alpha (residues 1–891), from Sf9 cells (natural protein, UniProt Q91ZP3-2 1-891, looked up)
chain: MNYVGQLAGQVFVTVKELYKGLNPATLSGCIDIIVIRQPNGSLQCSPFHVRFGKMGVLRSREKVVDIEINGESVDLHMKLGDNGEAFFVQETDNDQEIIPMYLATSPILSEGAARMESQLKRNSVDRIRCLDPTTAAQGLPPSDTPSTGSLGKKRRKRRRKAQLDNLKRDDNVNSSEDEDMFPIEMSSDEDTAPMDGSRTLPNDVPPFQDDIPKENFPSISTHPQSASYPSSDREWSPSPSPSGSRPSTPKSDSELVSKSADRLTPKNNLEMLWLWGELPQAAKSSSPHKMKESSPLGSRKTPDKMNFQAIHSESSDTFSDQSPTMARGLLIHQSKAQTEMQFVNEEDLESLGAAAPPSPVAEELKAPYPNTAQSSSKTDSPSRKKDKRSRHLGADGVYLDDLTDMDPEVAALYFPKNGDPGGLPKQASDNGARSANQSPQSVGGSGIDSGVESTSDSLRDLPSIAISLCGGLSDHREITKDAFLEQAVSYQQFADNPAIIDDPNLVVKVGNKYYNWTTAAPLLLAMQAFQKPLPKATVESIMRDKMPKKGGRWWFSWRGRNATIKEESKPEQCLTGKGHNTGEQPAQLGLATRIKHESSSSDEEHAAAKPSGSSHLSLLSNVSYKKTLRLTSEQLKSLKLKNGPNDVVFSVTTQYQGTCRCEGTIYLWNWDDKVIISDIDGTITRSDTLGHILPTLGKDWTHQGIAKLYHKVSQNGYKFLYCSARAIGMADMTRGYLHWVNERGTVLPQGPLLLSPSSLFSALHREVIEKKPEKFKVQCLTDIKNLFFPNTEPFYAAFGNRPADVYSYKQVGVSLNRIFTVNPKGELVQEHAKTNISSYVRLCEVVDHVFPLLKRSHSCDFPCSDTFSNFTFWREPLPPFENQDMHSASA
notes: mouse lipin 1 alpha, full length, residues 1–891 (891 residues printed); Vector YM-Bac3, a modified pFastBac Htb; also called wild-type lipin 1; recombinant lipin 1; source: Sf9, baculovirus, purified (Ni-NTA, Streptactin-XT, SEC)
Consider B2, for which, in series [2], the binding result is on record as “binds”.

B3: mouse lipin 2 M-Lip^xtal domain (residues 459–549) (domain or fragment, UniProt Q99PI5 459-549, looked up)
chain: SAMDLPDVTLSLCGGLSENGEISKEKFMEHIITYHEFAENPGLIDNPNLVIRIYNRYYNWALAAPMILSLQVFQKSLPKATVESWVKDKMP
notes: mouse lipin 2, M-Lip^xtal domain, residues 459–549; Cloned into pET28b with NdeI and NotI; the purification section names pET28a; source: E. coli BL21 (DE3) RIPL, purified (Ni-NTA, SEC)
B3: in series [3], the binding result is listed as “binds”.
